Experimental findings from publication PMC10806198, “Effects of OxyR regulator on oxidative stress, Apx toxin secretion and virulence of Actinobacillus pleuropneumoniae” are described below.

To fix the notation:
T1: OxyR (rOxyR) (Actinobacillus pleuropneumoniae 4074 …, UniProt A0ABM6X4Q0 1-297)
T1 sequence: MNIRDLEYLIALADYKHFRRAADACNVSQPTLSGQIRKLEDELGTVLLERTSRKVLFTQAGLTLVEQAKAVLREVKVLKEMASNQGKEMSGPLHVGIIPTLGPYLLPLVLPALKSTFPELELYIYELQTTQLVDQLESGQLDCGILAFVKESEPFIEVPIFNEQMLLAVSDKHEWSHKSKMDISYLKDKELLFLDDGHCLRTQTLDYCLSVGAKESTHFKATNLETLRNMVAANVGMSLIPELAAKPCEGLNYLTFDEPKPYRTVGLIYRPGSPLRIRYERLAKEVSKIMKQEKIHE

B1: apxIBD promoter probe (ApxIBDp) (dsDNA)
DNA 1: ATGATAAATAGCAATCCTATATATATTAGGTGTGTAGGAT
DNA 2: ATCCTACACACCTAATATATATAGGATTGCTATTTATCAT
B2: oxyR promoter probe (oxyRp) (dsDNA)
DNA 1: GAACGTACCAGCCGTAAGGTATTATTTACCCAAGCCGGTT
DNA 2: AACCGGCTTGGGTAAATAATACCTTACGGCTGGTACGTTC
B3: catalase promoter probe (05430p) (dsDNA)
DNA 1: ATAATAATATATCCATACACAAAACCTATTAACATTCCAA
DNA 2: TTGGAATGTTAATAGGTTTTGTGTATGGATATATTATTAT

The target in the data set is T1, OxyR (rOxyR). The data set can be described thus: EMSA; dose-dependent; abolished by excess unlabeled probe; Lightshift EMSA binding buffer (composition and pH not given), 0.5 ul poly[d(I-C)], 10 ul, 25 C 30 min; 5% native PAGE in 0.5x TBE. To be noted: protein: recombinant; tags: His (pET28a NdeI/XhoI, HisTrap purified); chain copies: 4; label: biotin 3'-end; blunt.
As to B1, the binding result is on record as “binds”.

For B2, the binding result is on record as “binds”.

B3: the binding result is on record as “binds”.
